Data taken from patent publication US20250381269A1 (FORTVITA BIOLOGICS SINGAPORE PTE, published 2025).

Assays:
[1] = molecular target: T1, human EGFR (EGR-H5222, Acro Biosystem) (human, UniProt P00533 25-645); assay: BLI (Octet Red96e), antibody captured on AHC sensor, human EGFR 100 nM in solution
T1 construct: Bought reagent; also called antigen A

[2] = molecular target: T2, human B7H3 (B73-H52E2, Acro Biosystem) (human, UniProt Q5ZPR3-2 29-245); assay: BLI (Octet Red96e), antibody captured on AHC sensor, human B7H3 100 nM in solution
T2 construct: also called CD276; antigen B
T2 sequence (looked up): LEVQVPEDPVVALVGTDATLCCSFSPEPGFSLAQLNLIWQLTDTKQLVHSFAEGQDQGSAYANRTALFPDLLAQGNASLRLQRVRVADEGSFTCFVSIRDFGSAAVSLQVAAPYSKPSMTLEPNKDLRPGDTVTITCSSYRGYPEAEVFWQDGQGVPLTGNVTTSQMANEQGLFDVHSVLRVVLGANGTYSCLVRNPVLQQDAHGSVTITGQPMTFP

[3] = molecular target: EGFR Del19 (amplified) on H1650 cells (UniProt P00533 25-1210); assay: cell-based or functional assay
[4] = molecular target: EGFR, wild type, on tumour cells (H508, TE-1, Colo-680N, H292, H322, H358; amplified in SK-MES-1 and H1703) (UniProt P00533 25-1210, limits assumed); assay: cell-based or functional assay
[5] = molecular target: EGFR R521K on HT-55 and LS180 cells (UniProt P00533 25-1210, limits assumed); assay: cell-based or functional assay
[6] = molecular target: EGFR R521K/Y1069C on CCK-81 cells (UniProt P00533 25-1210, limits assumed); assay: cell-based or functional assay
[7] = molecular target: EGFR L858R/T790M on H1975 cells (UniProt P00533 25-1210, limits assumed); assay: cell-based or functional assay

B1: Hz20G5.26/Zalu bsAb bispecific antibody molecule (bispecific antibody, human IgG1, kappa)
heavy 1: not shown
light 1: not shown
heavy 2: not shown
light 2: DIQLTQSPSFLSASVGDRVTITCSASSSVSYIHWYQQKPGKAPKRWIYDTSRLASGVPSRFSGSGSGTEFTLTISSLQPEDFATYYCQQWSSAPLTFGGGTKVEIKRTVAAPSVFIFPPSDEQLKSGTASVVCLLNNFYPREAKVQWKVDNALQSGNSQESVTEQDSKDSTYSLSSTLTLSKADYEKHKVYACEVTHQGLSSPVTKSFNRGEC
notes: also called anti-B7-H3/EGFR bispecific antibody
[1]
  Kd: 4.59 nM
[2]
  Kd: 2.48 nM
[3]
  IC50(nM), proliferation inhibition, H1650 cells: 4.86 nM
[4]
  IC50(nM), proliferation inhibition, Colo-680N cells: 12.3 nM
  IC50(nM), proliferation inhibition, H292 cells: 57.8 nM
  IC50(nM), proliferation inhibition, H508 cells: 1.08 nM
  IC50(nM), proliferation inhibition, SK-MES-1 cells (EGFR amplification): 0.4 nM
  IC50(nM), proliferation inhibition, TE-1 cells: 16 nM
[5]
  IC50(nM), proliferation inhibition, HT-55 cells: 0.14 nM
  IC50(nM), proliferation inhibition, LS180 cells: 1.33 nM
[6]
  IC50(nM), proliferation inhibition, CCK-81 cells: 0.24 nM
[7]
  IC50(nM), proliferation inhibition, H1975 cells: 0.99 nM

B2: Hz19A2.25/Zalu bsAb bispecific antibody molecule (bispecific antibody, human IgG1, kappa)
heavy 1: not shown
light 1: not shown
heavy 2: not shown
light 2: EIVLTQSPATLSLSPGERATLSCSVSSSVQSNYLYWYQQKPGQAPRLLIYGTSNLASGIPARFSGSGSGTDFTLTISSLEPEDFAVYYCYQWSSYPFTFGQGTKLEIKRTVAAPSVFIFPPSDEQLKSGTASVVCLLNNFYPREAKVQWKVDNALQSGNSQESVTEQDSKDSTYSLSSTLTLSKADYEKHKVYACEVTHQGLSSPVTKSFNRGEC
notes: IgG1-like, four polypeptide chains, Innobody heterodimer Fc mutations; low fucose (GlymaxX)
[1]
  Kd: 4.19 nM
  koff: 0.00121 s⁻¹
  kon: 289000 M⁻¹ s⁻¹
[2]
  Kd: 6.73 nM
  koff: 0.00219 s⁻¹
  kon: 326000 M⁻¹ s⁻¹

B3: Hz5C2.9/Zalu bsAb bispecific antibody molecule (bispecific antibody, human IgG1, kappa)
heavy 1: not shown
light 1: not shown
heavy 2: not shown
light 2: EIVLTQSPGTLSLSPGERATLSCRSSQSLVHSQGITYLDWYQQKPGQAPRLLIYKVSNRFSGIPDRFSGSGSGTDFTLTISRLEPEDFAVYYCSQGTHVPPWTFGGGTKVEIKRTVAAPSVFIFPPSDEQLKSGTASVVCLLNNFYPREAKVQWKVDNALQSGNSQESVTEQDSKDSTYSLSSTLTLSKADYEKHKVYACEVTHQGLSSPVTKSFNRGEC
notes: as for B2
[1]
  Kd: 4.69 nM
  koff: 0.00124 s⁻¹
  kon: 264000 M⁻¹ s⁻¹
[2]
  Kd: 8.25 nM
  koff: 0.00352 s⁻¹
  kon: 427000 M⁻¹ s⁻¹
